Results from publication PMC5457524, “An engineered high affinity Fbs1 carbohydrate binding protein for selective capture of N-glycans and N-glycopeptides” (Nature Communications, 2017).

B1: SNAP-Fbs1 fusion protein (wild-type human Fbs1 sugar-binding domain, residues 92-296) [human] / fetuin [modified: sialylated complex N-linked glycans; sialylated complex N-linked glycans] [not stated] (parent)
chain 1: CQQEGLVPEGGVEEERDHWQQFYFLSKRRRNLLRNPCGEEDLEGWCDVEHGGDGWRVEELPGDSGVEFTHDESVKKYFASSFEWCRKAQVIDLQAEGYWEELLDTTQPAIVVKDWYSGRSDAGCLYELTVKLLSEHENVLAEFSSGQVAVPQDSDGGGWMEISHTFTDYGPGVRFVRFEHGGQDSVYWKGWFGARVTNSSVWVEP
chain 2: IPLDPVAGYKEPACDDPDTEQAALAAVDYINKHLPRGYKHTLNQIDSVKVWPRRPTGEVYDIEIDTLETTCHVLDPTPLANCSVRQQTQHAVEGDCDIHVLKQDGQFSVLFTKCDSSPDSAEDVRKLCPDCPLLAPLNDSRVVHAVEVALATFNAESNGSYLQLVEISRAQFVPLPVSVSVEFAVAATDCIAKEVVDPTKCNLLAEKQYGFCKGSVIQKALGGEDVRVTCTLFQTQPVIPQPQPDGAEAEAPSAVPDAAGPTPSAAGPPVASVVVGPSVVAVPLPLHRAHYDLRHTFSGVASVESSSGEAFHVGKTPIVGQPSIPGGPVRLCPGRIRYFKI

Variants of: B1
Assay: fetuin bead pulldown, SDS-PAGE quantified by ImageJ
Conditions: with fetuin [modified: sialylated complex N-linked glycans, E. coli cell lysate containing the same amount of wt Fbs1 or variant Fbs1 fusion protein, parent: 1, read off a plot

ratio to parent | Variant
1.7 fold change | chain 1 CQQEGLVPEGGVEEERDHWQQFYFLSKRRRNLLRNPCGEEDLEGWCDVEHGGDGWRVEELPGPPGVEFTHDESVKKYFASSFEWCRKAQVIDLQAEGYWEELLDTTQPAIVVKDWYSGRSDAGCLYELTVKLLSEHENVLAEFSSGQVAVPQDSDGGGWMEISHTFTDYGPGVRFVRFEHGGQDSVYWKGWFGARVTNSSVWVEP [chain 1 D63P S64P]
2.5 fold change | chain 1 CQQEGLVPEGGVEEERDHWQQFYFLSKRRRNLLRNPCGEEDLEGWCDVEHGGDGWRVEELPGPPSVEFTHDESVKKYFASSFEWCRKAQVIDLQAEGYWEELLDTTQPAIVVKDWYSGRSDAGCLYELTVKLLSEHENVLAEFSSGQVAVPQDSDGGGWMEISHTFTDYGPGVRFVRFEHGGQDSVYWKGWFGARVTNSSVWVEP [chain 1 D63P S64P G65S]
